# Source: PMC7088854 (Molecular and Cellular Biochemistry, 2009)
# Numbering of substitutions follows the chain as printed. In names and notes the source's numbering stands.
# T1: Myc-DC-SIGNR (UniProt Q9H2X3 1-399)
# T1 sequence (looked up): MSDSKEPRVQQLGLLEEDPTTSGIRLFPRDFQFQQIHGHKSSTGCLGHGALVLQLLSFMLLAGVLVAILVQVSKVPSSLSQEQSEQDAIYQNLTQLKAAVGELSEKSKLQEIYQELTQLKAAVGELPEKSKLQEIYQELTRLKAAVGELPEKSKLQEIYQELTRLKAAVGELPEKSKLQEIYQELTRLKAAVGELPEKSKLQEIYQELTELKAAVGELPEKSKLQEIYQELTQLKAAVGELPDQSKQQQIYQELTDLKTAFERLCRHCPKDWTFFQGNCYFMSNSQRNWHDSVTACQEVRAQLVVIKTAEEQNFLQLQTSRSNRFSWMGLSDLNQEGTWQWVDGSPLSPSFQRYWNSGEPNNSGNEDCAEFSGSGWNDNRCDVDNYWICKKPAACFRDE
# B1: Flag-LSECtin D1 (deletion of the potential endocytic motif) (receptor, UniProt Q6UXB4 1-293, looked up)
# chain: MDTTRGGSSEEVPGGPWGRWVHWSRRPLFLALAVLVTTVLWAVILSILLSKASTERAALLDGHDLLRTNASKQTAALGALKEEVGDCHSCCSGTQAQLQTTRAELGEAQAKLMEQESALRELRERVTQGLAEAGRGREDVRTELFRALEAVRLQNNSCEPCPTSWLSFEGSCYFFSVPKTTWAAAQDHCADASAHLVIVGGLDEQGFLTRNTRGRGYWLGLRAVRHLGKVQGYQWVDGVSLSFSHWNQGEPNDAWGRENCVMMLHTGLWNDAPCDSEKDGWICEKRHNC
# B2: Flag-LSECtin M1 (N73A) (receptor, UniProt Q6UXB4 1-293, looked up)
# chain: MDTTRYSKWGGSSEEVPGGPWGRWVHWSRRPLFLALAVLVTTVLWAVILSILLSKASTERAALLDGHDLLRTAASKQTAALGALKEEVGDCHSCCSGTQAQLQTTRAELGEAQAKLMEQESALRELRERVTQGLAEAGRGREDVRTELFRALEAVRLQNNSCEPCPTSWLSFEGSCYFFSVPKTTWAAAQDHCADASAHLVIVGGLDEQGFLTRNTRGRGYWLGLRAVRHLGKVQGYQWVDGVSLSFSHWNQGEPNDAWGRENCVMMLHTGLWNDAPCDSEKDGWICEKRHNC
# B3: Flag-LSECtin M2 (N159A) (receptor, UniProt Q6UXB4 1-293, looked up)
# chain: B2 chain with A73N, N159A
# B4: Flag-LSECtin D3 (deficiency of the CRD/CTLD domain) (domain or fragment, UniProt Q6UXB4 1-162, looked up)
# chain: MDTTRYSKWGGSSEEVPGGPWGRWVHWSRRPLFLALAVLVTTVLWAVILSILLSKASTERAALLDGHDLLRTNASKQTAALGALKEEVGDCHSCCSGTQAQLQTTRAELGEAQAKLMEQESALRELRERVTQGLAEAGRGREDVRTELFRALEAVRLQNNSC
# Molecular target: T1, Myc-DC-SIGNR
# Test: co-IP
row,co-precipitated amount relative to wild-type LSECtin (onefold),Binder
1,1.2 fold of wild type,B1
2,0.8 fold of wild type,B2
3,1.5 fold of wild type,B3
4,0.8 fold of wild type,B4
